Reference: patent US20220193186A1, “METHOD OF TREATING AND PREVENTING BONE AND JOINT INFECTIONS” (CONTRAFECT CORPORATION, priority 2019, published 2022)
Changes are numbered by the printed parent chain. In names and notes the source's numbering stands. In brackets after ≈: the same amount, converted by molar mass.

Legend:
MRSA IDRL-6169 [1] = experiment: MIC by broth microdilution; assay type: cell-based, Staphylococcus aureus; conditions: MRSA IDRL-6169, broth microdilution, CF-301 testing with 0.5 mM DL-dithiothreitol and 25% horse serum
MRSA IDRL-6169 biofilm = experiment: Minimum biofilm inhibitory and bactericidal concentrations; assay type: cell-based, Staphylococcus aureus; conditions: CF-301 testing with 0.5 mM DL-dithiothreitol and 25% horse serum
MRSA IDRL-6169 [2] = experiment: Acute MRSA osteomyelitis in rats, quantitative culture of tibia (Example 4); assay type: in vivo, Sprague Dawley rats; conditions: rat tibia, daptomycin 60 mg/kg i.p. every 12 hours for four days, CF-301 single dose 40 mg/kg tail vein; for mean (±SD) bacterial density: Day 12 (4 days after start of therapy); for reduction compared to untreated rats: Day 12
[3] = test system: methicillin-resistant Staphylococcus aureus IDRL-6169; experiment: Rat osteomyelitis model, quantitative culture of tibia (Example 6); assay type: in vivo, Sprague Dawley rats; conditions: for Mean log10 CFU/g / Median log10 CFU/g: rat tibia bone; for Mean log10 CFU/g reduction: vs no treatment
Description: Agents Chemother. 2019 Sep. 23; 63(10). Specifically, osteomyelitis was established in the rats by bending the knee joint, inserting a 21G needle into the tibial process, and injecting 10 μl […] and 50 μl of about 10^6-10^8 colony forming units (cfu) suspension of methicillin-resistant Staphylococcus aureus IDRL-6169.
(§1) The following six treatment groups were identified: (1) control/no treatment (n=18); (2) 60 mg/kg daptomycin (DAP) administered subcutaneously twice daily for 4 days (n=17); (3) 40 mg/kg pp296 administered intravenously daily for 4 days (n=17); (4) 40 mg/kg pp296 administered intravenously daily for 4 days plus 60 mg/kg DAP administered subcutaneously twice daily for 4 days (n=17); (5) 100 mg/kg pp296 administered intravenously once as a single dose on treatment day 1 (n=17); and (6) 100 mg/kg pp296 administered intravenously once as a single dose on treatment day 1 plus 60 mg/kg DAP administered subcutaneously twice daily for 4 days (n=17). When daptomycin was administered together with pp296, it was given 15 minutes prior to pp296, which was maintained on ice.
Animals were sacrificed twelve hours after the last treatment was administered, and the tibia were collected, weighed, and cryopulverized for quantitative bacterial culture. The log10 CFU counts/g of tibia bone was determined using the Wilcoxon rank sum test, adjusted with a false discovery rate approach.

[4] = Body weight of rats in osteomyelitis model (Example 6); assay type: in vivo, Sprague Dawley rats; conditions: mean; for Body weight on Day 1: time of surgery (before treatment); for Body weight on Day 8: immediately prior to treatment; for Body weight on Day 12: time of sacrifice, without or with DAP 60 mg/kg
Description: as §1
Additionally, body weights of the animals were monitored as a marker of general health status during the study. The mean body weight of the animals at the time of surgery (day 1), immediately prior to treatment (day 8), and at the time of sacrifice (day 12) are shown below in Table 5.

[5] = test system: S. epidermidis clinical isolates; experiment: MIC by broth microdilution (CLSI) in caMHB-HSF and caMHB-HSD; assay type: cell-based; conditions: S. epidermidis (N = 53)
Description: More particularly MIC values for a lysin may be determined against e.g., S. epidermidis or S. aureus in e.g., Mueller-Hinton broth (MHB) supplemented with physiological salt concentrations and synovial fluid, such as human synovial fluid. Minimum Inhibitory Concentrations (MICs) of a lysin against e.g., S. epidermidis may be determined using broth microdilution (BMD) following Clinical and Laboratory Standards Institute (CLSI) methodology (M07-A11, 2018, which is herein incorporated by reference in its entirety) in a non-standard medium (caMHB supplemented to 50% with human synovial fluid (caMHB-HSF)). See Examples.
Minimum Inhibitory Concentrations (MICs) of the CF-301 lysin (SEQ ID NO: 1) against S. epidermidis were determined using broth microdilution (BMD) following CLSI methodology (M07-A11, 2018) in a non-standard medium (caMHB supplemented to 25% with horse serum and 0.5 mM with DTT (caMHB-HSD)) approved for use by the CLSI in antimicrobial susceptibility testing with CF-301 (CLSI, AST Subcommittee Meeting, January, 2018). Activity of CF-301 against S. epidermidis in HSF (Discovery Life Sciences) was similarly determined using BMD in caMHB with 50% HSF (caMHB-HSF). The caMHB-HSF supports the growth and biofilm formation of S. epidermidis as well as S. aureus.

[6] = test system: S. aureus (MRSA strains MW2, ATCC BAA-42); experiment: as above; assay type: cell-based
[7] = test system: S. epidermidis isolate NRS6 biofilms; experiment: Disruption of biofilms formed in human synovial fluid (fluorescent imaging); assay type: cell-based
Description: Macroscopic analysis of CF-301 activity on biofilms, which were formed in human synovial fluid, was performed in the manner described in Dastgheyb et al. (2015) JID 211:641-50 and Dastgheyb et al. (2015) AAC 59:e04579-14. Briefly, 10^8 CFUs of S. epidermidis isolate NRS6 were incubated for 24 hours at 37° C. in 24-well plates containing HSF. After biofilm formation, the wells were stained with ethidium bromide (EtBr) and treated with 0.1 or 1 μg/mL CF-301 for 2 hours. The biofilms were visualized by UV fluorescent imaging. Untreated controls were also examined.
The biofilms were also stained with Alexa Flour^488-WGA, which stained the exopolysaccharide in the biofilms (and individual bacteria) and propidium iodide (PI) which stained the entire biofilm. The biofilms were then visualized by fluorescence microscopy. As evidenced in FIG. 3, the S. epidermidis biofilms formed in HSF were eliminated after two hours of treatment with 0.1 ug/mL or 1 ug/mL CF-301.

[8] = after a single dose of 10 mg/kg
[9] = test system: multiple drug resistant (MDR) Staphylococcus epidermidis prosthetic knee infection; experiment: CF-301 during arthroscopic DAIR in patients with prosthetic knee infection
[10] = Pathological slides, rat osteomyelitis model (Example 6); assay type: in vivo, Sprague Dawley rats; conditions: rats, pp296 line: 40 mg/kg daily dosing (Treatment Group 3)
Description: These findings are consistent with acute osteomyelitis, and no appreciable differentiation between groups could be made.

[11] = DAP 60 mg/kg s.c. twice daily for 4 days
[12] = caMHB-HSD (25% horse serum, 0.5 mM DTT)
[13] = caMHB-HSF (50% human synovial fluid)
[14] = CF-301 into the joint during arthroscopic DAIR, daptomycin, linezolid then suppressive tedizolid
[15] = pp296 40 mg/kg i.v. daily for 4 days (combination: plus DAP 60 mg/kg s.c. twice daily for 4 days)
[16] = pp296 100 mg/kg i.v. single dose on treatment day 1 (combination: plus DAP 60 mg/kg s.c. twice daily for 4 days)
[17] = groups pp296 40 mg/kg, without or with DAP
[18] = groups pp296 100 mg/kg, without or with DAP

CCCCCCCCCC(=O)N[C@@H](Cc1c[nH]c2ccccc12)C(=O)N[C@H](CC(N)=O)C(=O)N[C@@H](CC(=O)O)C(=O)N[C@@H]1C(=O)NCC(=O)N[C@@H](CCCN)C(=O)N[C@@H](CC(=O)O)C(=O)N[C@H](C)C(=O)N[C@@H](CC(=O)O)C(=O)NCC(=O)N[C@H](CO)C(=O)N[C@@H]([C@H](C)CC(=O)O)C(=O)N[C@@H](CC(=O)c2ccccc2N)C(=O)O[C@@H]1C [daptomycin, reference compound]
MIC (MRSA IDRL-6169 [1]; Staphylococcus aureus, read-out: minimum inhibitory concentration): 0.5 µg/mL (≈ 0.309 µM) | Minimum biofilm inhibitory concentration (MRSA IDRL-6169 biofilm): 1 µg/mL | minimum biofilm bactericidal concentration (MRSA IDRL-6169 biofilm): 2 µg/mL | mean (±SD) bacterial density (MRSA IDRL-6169 [2]): 4.09 (±0.37) log10 cfu/gram of bone | reduction compared to untreated rats (MRSA IDRL-6169 [2]): 1.04 log10 cfu/gram of bone | Mean log10 CFU/g [3, 11]: 4.29 log10 CFU/g | Median log10 CFU/g [3, 11]: 4.79 log10 CFU/g | Mean log10 CFU/g reduction [3, 11]: −1.14 log10 CFU/g | Body weight on Day 1 ([4]; group DAP 60 mg/kg): 339 g

B1: CF-301: PlySs2 lysin of SEQ ID NO: 1, anti-staphylococcal lysin encoded within a prophage of the Streptococcus suis genome (protein, listed as Streptococcus suis)
chain: MTTVNEALNNVRAQVGSGVSVGNGECYALASWYERMISPDATVGLGAGVGWVSGAIGDTISAKNIGSSYNWQANGWTVSTSGPFKAGQIVTLGATPGNPYGHVVIVEAVDGDRLTILEQNYGGKRYPVRNYYSAASYRQQVVHYITPPGTVAQSAPNLAGSRSYRETGTMTVTVDALNVRRAPNTSGEIVAVYKRGESFDYDTVIIDVNGYVWVSYIGGSGKRNYVATGATKDGKRFGNAWGTFK
CF-301 MIC, MIC50 [5, 12]: 0.5 µg/mL | CF-301 MIC, MIC90 [5, 12]: 0.5 µg/mL | CF-301 MIC, Range [5, 12]: 0.25 to 2 µg/mL | CF-301 MIC, MIC50 [5, 13]: 0.015 µg/mL | CF-301 MIC, MIC90 [5, 13]: 0.125 µg/mL | CF-301 MIC, Range [5, 13]: 0.0078 to 2 µg/mL | CF-301 MIC ([6]; S. aureus strain ATCC BAA-42, caMHB-HSD): 0.5 µg/mL | CF-301 MIC ([6]; S. aureus strain ATCC BAA-42, caMHB-HSF): 0.03 µg/mL | CF-301 MIC ([6]; S. aureus strain MW2, caMHB-HSD): 0.5 µg/mL | CF-301 MIC ([6]; S. aureus strain MW2, caMHB-HSF): 0.03 µg/mL | ethidium bromide staining of biofilm structures formed by NRS6 in human synovial fluid ([7]; 0.1 or 1 μg/mL CF-301 for 2 hours, UV fluorescent imaging, FIG. 2): eliminated | S. epidermidis biofilms formed in HSF, Alexa Fluor 488-WGA / propidium iodide fluorescence microscopy ([7]; two hours of treatment with 0.1 ug/mL or 1 ug/mL CF-301, FIG. 3): eliminated | minimum inhibitory concentration (MRSA IDRL-6169 [1]): 0.5 µg/mL | Minimum biofilm inhibitory concentration (MRSA IDRL-6169 biofilm): 1 µg/mL | minimum biofilm bactericidal concentration (MRSA IDRL-6169 biofilm): 4 µg/mL | mean (±SD) bacterial density (MRSA IDRL-6169 [2]): 4.65 (±0.65) log10 cfu/gram of bone | reduction compared to untreated rats (MRSA IDRL-6169 [2]): 0.65 log10 cfu/gram of bone | Levels of CF-301 in bone relative to plasma levels [8]: 10-15% | outcome after 1 year follow up in the two septic arthritis patients [9, 14]: favorable | outcome at 6 months in the two patients with fistula at baseline [9, 14]: recurrence of the fistula | adverse events during arthroscopy ([9]; four patients, CF-301 (75 mg/mL; 30 mL) into the joint during arthroscopy, followed by antibiotics): No adverse events

B2: pp296: modified PlySs2 lysin, SEQ ID NO: 6; L92W, V104S, V128T and Y137S, Y164K, N184D, S198Q (protein)
chain: B1 chain with L92W, V104S, V128T, Y137S, Y164K, N184D, S198Q
Mean log10 CFU/g [3, 15]: 4.94 log10 CFU/g | Median log10 CFU/g [3, 15]: 5.27 log10 CFU/g | Mean log10 CFU/g [3, 16]: 4.81 log10 CFU/g | Median log10 CFU/g [3, 16]: 4.99 log10 CFU/g | Mean log10 CFU/g reduction [3, 15]: −0.49 log10 CFU/g | Mean log10 CFU/g reduction [3, 16]: −0.61 log10 CFU/g | Body weight on Day 8 [4, 17]: 313 g | Body weight on Day 8 [4, 18]: 312 g | Body weight on Day 12 ([4]; pp296 40 mg/kg i.v. daily for 4 days): 311 g | Body weight on Day 12 ([4]; pp296 100 mg/kg i.v. single dose): 312 g | Body weight on Day 1 [4, 17]: 342 g | Body weight on Day 1 [4, 18]: 344 g | Pathological slides (marrow cellularity) [10]: only possible hypercellularity
